In the supplement of paper PMC10567573:
± gives the standard deviation.

Assay: protein stability index of a GFP-peptide fusion (GPS, HEK-293T) (PSI 1-6); higher = more stable
[1] = treatment: DMSO, c terminus: a fixed tail appended
[2] = treatment: MLN4924 1 uM, 8 h, c terminus: a fixed tail appended
[3] = treatment: DMSO, c terminus: native
[4] = treatment: MLN4924 1 uM, 8 h, c terminus: native
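Further: 24-mer peptide tiles fused after GFP, lentivirally expressed, FACS-sorted into six equal bins by GFP/DsRed ratio, decoded by Illumina sequencing, PSI is the read-weighted mean bin number.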

Sequence | protein stability index [1] | protein stability index [2] | protein stability index [3] | protein stability index [4]
PQEESEESNVSMASLGEKRDHHST [CHGB] | 5.59 ± 0.37 | 5.58 ± 0.16 | – | –
ELQLSDLLKQGYNKTLLRLRLRKE [PKD2L1] | 2.39 ± 0.26 | 2.76 ± 0.24 | – | –
QPKPLLLPAAPKTQTISSIPPQT [ATF6] | – | – | 4.73 ± 0.23 | 4.65 ± 0.34
DLPWFRTLSWYFLLCVNYFFYGET [CDS2] | 3.95 ± 0.26 | 3.23 ± 0.97 | – | –
APAKYTVFDAEGYVKPQSCIDIVI [MOSPD3] | 2.83 ± 0.84 | 2.5 ± 1.3 | – | –
GWRSLWLGWGPTALRDVPFSALYW [SLC25A39] | 2.22 ± 0.41 | 2.99 ± 0.76 | – | –
VVLSDGPALHPAHAPQISYTGPSS [NCK2] | 3.13 ± 0.37 | 3.38 ± 0.17 | – | –
KLQDVFEMRFAKMPDEPVEAPALP [BRD3] | 3.49 ± 0.23 | 3.62 ± 0.34 | – | –
NSEEEEDDDDEEEEVSEVESFILD [ANKRD17] | 5.06 ± 0.33 | 4.94 ± 0.23 | – | –
SCPEGDASECPQATNAKDSGCSSP [PPEF2] | 5.63 ± 0.34 | 5.7 ± 0.27 | – | –
EADPPASDLPTPQAIEPQAIVQQV [SNX8] | 5.34 ± 0.11 | 5.2 ± 0.24 | – | –
HLALHAASSGDLTCGVCALELGST [PLAGL1] | 3.01 ± 0.48 | 2.93 ± 0.24 | – | –
MAGRLMIRKLVAEKLNIPWNHIRL [AASDHPPT] | 2.4 ± 0.94 | 2.12 ± 0.34 | – | –
FSTYTSDKDENKLSEASGGRAENG [ZC3H15] | 5.38 ± 0.44 | 5.23 ± 0.58 | – | –
AMSTLGVIEAIAQITVKALPKPPG [PTPRD] | 2.21 ± 0.17 | 2.16 ± 0.26 | – | –
LTKLREMGREKCHQYWPAERSARY [PTPRD] | 2.33 ± 0.21 | 2.9 ± 0.45 | – | –
FAHHSLFLHVRKATRAMGLLNTLS [TMEM175] | 2.6 ± 0.78 | 2.18 ± 0.23 | – | –
ERSRGRSISRGRHARTHPQTALLE [MATN2] | 4.31 ± 0.53 | 4.72 ± 0.3 | – | –
AKRNRLAPAHVDEQVFLYENARSG [ZBED1] | 4.3 ± 0.59 | 4.43 ± 0.25 | – | –
GQEYAAKIINTKKLSARDHQKLER [CAMK2D] | 3.96 ± 0.58 | 3.82 ± 0.096 | – | –
SAPDTMKRYSMYLTPKGGVRTSYQ [TRIM29] | 2.94 ± 0.21 | 3.05 ± 0.16 | – | –
CTRPVPRNGGKYCEGRRTRFRSCN [ADAMTS4] | 3.79 ± 0.14 | 4.12 ± 0.24 | – | –
GDSASEEKSGSAEPFVLPASSVES [FBXO34] | 5.39 ± 0.33 | 5.42 ± 0.42 | – | –

Sequence | protein stability index [1] | protein stability index [2] | protein stability index [3] | protein stability index [4]
GKRPSQEEDTQSIGPKVQRQSTN [CRY1] | – | – | 5.35 ± 0.28 | 5.45 ± 0.11
VLETKWELLQQLDLNNCKNNLEPI [KRT71] | 3.2 ± 0.17 | 3.17 ± 0.29 | – | –
MPRQISRQSSVTESTLYPNPYHQP [TPRG1] | 3.73 ± 0.34 | 3.7 ± 0.25 | – | –
SYSTSEQAELSYKKVSEGPPLRLW [DLC1] | 2.73 ± 0.36 | 3.26 ± 0.18 | – | –
EVEVVEEAKCCCFFKRKRKKTAQR [CSNK1G1] | 4.4 ± 0.41 | 4.45 ± 0.12 | – | –
EYECRRRMLMKRLDVTVQSFGWSD [FAM98B] | 2.48 ± 0.14 | 2.45 ± 0.11 | – | –
LCDKLPPATALGTASYPSDGCGAD [NOL4L] | 4.98 ± 0.19 | 4.92 ± 0.23 | – | –
DASILTEMPTQPGKPLIPPMNRRN [NETO1] | 4.45 ± 0.25 | 4.64 ± 0.13 | – | –
KVQKPLLQAPFLPPKAPPPVIKIP [RHOBTB1] | 3.17 ± 0.11 | 3.35 ± 0.13 | – | –
SEAEEALYLIAKRNRKLKCTFSLT [SLC22A15] | 2.52 ± 0.15 | 2.56 ± 0.12 | – | –
HYLIFDLVTGGELFEDIVAREYYS [CAMK2A] | 2.71 ± 0.72 | 2.54 ± 0.66 | – | –
SRDRRRSSDRSRDSSHERTESQLT [BTBD10] | 5.45 ± 0.32 | 5.5 ± 0.22 | – | –
FIFTFVKKKKIGFYFEVCGMMVES [PCDHGA10] | 3.34 ± 0.57 | – | – | –
EAGNEFKNIFGTPEFVAPEIVNYE [DAPK3] | 4.02 ± 0.1 | 4.66 ± 0.1 | – | –
PPQPMVPLAVENQAGGEGAGGELG [PBXIP1] | 5.52 ± 0.11 | 5.51 ± 0.12 | – | –
VNLEEIPGEGLLISWAFTDRPDLS [C2CD2L] | 2.14 ± 0.15 | 2.08 ± 0.23 | – | –
LQGDLKTLMGKLKLKNTVTIQQEK [SASS6] | – | 2.81 ± 0.25 | – | –
PVIAAPSMWTRPQIKDFKEKIQQD [ACBD3] | 4.59 ± 0.32 | 4.41 ± 0.4 | – | –
YFSQVPVLASFILDDGEIDEIRWK [IQUB] | 2.25 ± 0.72 | 2.22 ± 0.28 | – | –
MQERVQRLEAARLSLEEELSRVKA [LRRC45] | 4.25 ± 0.5 | 4.48 ± 0.27 | – | –
FNEQTWEVSQQDPSHGEVGEHKDR [ZSCAN9] | 5.38 ± 0.26 | 5.35 ± 0.17 | – | –
LGDPCPMLESPGAPCRSAQASVSC [HDAC6] | 3.94 ± 0.39 | 4.06 ± 0.18 | – | –
ALVFGVNTFIALALQTLLTLIVVD [SLC19A2] | 3.33 ± 0.55 | 3.37 ± 0.58 | – | –

Sequence | protein stability index [1] | protein stability index [2] | protein stability index [3] | protein stability index [4]
KIRRGQFCIPEHISPKARCLIRSL [TRIB1] | 2.29 ± 0.48 | 2.29 ± 0.4 | – | –
NALKDARAKLDELEGALHQAKEEL [KRT71] | 5.06 ± 0.38 | 4.97 ± 0.095 | – | –
FRRAPSWRKRFRPREHHGRGGMLS [PPFIA4] | 3.11 ± 0.27 | 3.99 ± 0.078 | – | –
EYLLSFPAGKTPVPAGEEEGELGE [VPS39] | 5.25 ± 0.43 | 5.31 ± 0.071 | – | –
STHHGCEHICVNNGNSYICKCSEG [MATN2] | 5.16 ± 0.27 | 4.94 ± 0.23 | – | –
EGDPGSKQPRKKRGRYRQYNSEIL [LCOR] | 4.64 ± 0.22 | 4.55 ± 0.28 | – | –
AYTHGCILHPELTVDSMIPAYATT [GDAP1] | 2.65 ± 0.15 | 2.76 ± 0.063 | – | –
GEALGRDHSEHLSGSSYRDALQRY [RBMY1A1] | 4.33 ± 0.22 | 4.26 ± 0.29 | – | –
KPDSVGLPPCAVRNLQDLARIYIR [PCMTD1] | 2.94 ± 0.085 | 2.85 ± 0.1 | – | –
AVGKMGFVVTMLKLIQKKLLDKTC [ZER1] | 2.29 ± 0.64 | 2.35 ± 0.8 | – | –
NCVLSSSPNPFPEISRGEYLYTYD [ZNF8] | 2.76 ± 0.42 | 3.01 ± 0.3 | – | –
DPLTYKSRLMVVVKMDSSIQPGPF [RHOBTB2] | 2.05 ± 0.53 | 2.08 ± 0.25 | – | –
TTENENTKFEVRLLRDPADASEAH [CHGB] | 5.18 ± 0.21 | 5.24 ± 0.14 | – | –
PDPSHSPSDKVGRADAHLGSSSVA [TOR1AIP2] | 4.98 ± 0.37 | 4.68 ± 0.95 | – | –
MVTCKSEFYHDEFKRWIYLNDQNL [GAN] | 2.44 ± 0.43 | 2.25 ± 0.48 | – | –
DPYLSYRWKRRRSYSREHEGRLRY [CLK3] | 3.54 ± 0.33 | 3.57 ± 0.56 | – | –
EPEDMETLEEKFSDVHPVALNFMK [CDKL4] | 4.68 ± 0.3 | 4.89 ± 0.19 | – | –
LVLEQFLTILPTEIETWVREHCPE [ZNF449] | 2.2 ± 0.47 | 2.35 ± 0.47 | – | –
IVGSQGAEGALEEVPLEVLRQRES [TBC1D10A] | 5.17 ± 0.34 | 5.31 ± 0.26 | – | –
ERIRLLRQKREAAARKKYNLLQDS [C18orf25] | 3.25 ± 0.34 | 3.6 ± 0.36 | – | –
HGEEQRITIEPGTSYRLQGLKPNS [PTPRD] | 4.4 ± 0.18 | 4.67 ± 0.29 | – | –
ATKQLDFTRKTLAEKKQELDKLRN [SASS6] | 4.19 ± 0.26 | 4.43 ± 0.24 | – | –
GPEPPPVYTNLSSYSPASASSGGA [JUNB] | 4.6 ± 0.5 | 4.76 ± 0.3 | – | –

Sequence | protein stability index [1] | protein stability index [2] | protein stability index [3] | protein stability index [4]
DIEDVFYKYGAIRDIDLKNRRGGP [SRSF1] | 3.32 ± 0.48 | 3.39 ± 0.17 | – | –
TGNVCIEEIDVDGKFIRLKNTSEQ [LMNB1] | 4.76 ± 0.29 | 4.76 ± 0.15 | – | –
KPENISLRNKLRELCVKLMFLHPV [SMG5] | 2.9 ± 0.52 | 3.06 ± 0.34 | – | –
GNGVHVCNVKYKRWALLSCRGKKP [KLHDC10] | 2.73 ± 0.35 | 2.94 ± 0.27 | – | –
DLSAANEKNLLLQNQVDELERKFR [LRRC45] | 3.96 ± 0.38 | 4.08 ± 0.62 | – | –
LEAEVKDTTRVENLIKSENYGKIL [R3HDM1] | 4.3 ± 0.59 | 4.43 ± 0.42 | – | –
FKWYLENVYPEMRVYNNTLTYGEV [GALNT9] | 2.38 ± 0.48 | 2.43 ± 0.35 | – | –
YVERKNSLKKGSLVKNLKDTLGLG [NCK2] | 2.85 ± 0.34 | 3.13 ± 0.28 | – | –
DQDGEYCPEVKLKTTGLEEAAEAE [SRPK2] | 5.63 ± 0.3 | 5.81 ± 0.18 | – | –
IHIIDFGLAKEYIDPETKKHIPYR [CSNK1G3] | 2.1 ± 0.36 | 2.33 ± 0.17 | – | –
LGDEICCWSFYGQGRKIAEVCCTS [KCTD13] | 2.15 ± 0.1 | 2.1 ± 0.29 | – | –
EDHIAHIIELLGSIPRHFALSGKY [SRPK2] | 2.71 ± 0.4 | 2.63 ± 0.58 | – | –
SHAWEVALGGLQSWRVGVVRVRQD [TRIM35] | 2.47 ± 0.26 | 2.35 ± 0.36 | – | –
KDMSESQDEVPDEVENQFILRLPL [TAF7L] | 4.41 ± 0.26 | 4.85 ± 0.15 | – | –
ERLFGSAANVVSAKRNRLAPAHVD [ZBED1] | 3.65 ± 0.41 | 3.66 ± 0.34 | – | –
SIDLGTAHSAAVTASGDCYTFGSN [NEK8] | 3.79 ± 0.31 | 4.06 ± 0.35 | – | –
NATLTQYQLLATHVPTVWAIDQYR [RHOBTB2] | 2.61 ± 0.58 | 2.48 ± 0.31 | – | –
QSLRCDLIRYICGVVHPSNEVLSS [INTS3] | 2.33 ± 0.34 | 2.19 ± 0.45 | – | –
MAQSRDGGNPFAEPSELDNPFQDP [SCAMP3] | 5.19 ± 0.17 | 5.19 ± 0.23 | – | –
ALGGLQSWRVGVVRVRQDSGAEGH [TRIM35] | 2.95 ± 0.46 | 3.31 ± 0.38 | – | –
